Assay results from patent US20150183883A1 (Genentech, published 2015).
One block for each binder: values may come before it.

Molecular target: T1, endothelin B receptor (ETBR) on the surface of UACC-257X2.2 melanoma cells (human, UniProt P24530 27-442)
T1 construct: Endogenous ETBR on UACC-257X2.2 melanoma cells (parental and resistant lines); also called EDNRB; EDNBR
T1 sequence: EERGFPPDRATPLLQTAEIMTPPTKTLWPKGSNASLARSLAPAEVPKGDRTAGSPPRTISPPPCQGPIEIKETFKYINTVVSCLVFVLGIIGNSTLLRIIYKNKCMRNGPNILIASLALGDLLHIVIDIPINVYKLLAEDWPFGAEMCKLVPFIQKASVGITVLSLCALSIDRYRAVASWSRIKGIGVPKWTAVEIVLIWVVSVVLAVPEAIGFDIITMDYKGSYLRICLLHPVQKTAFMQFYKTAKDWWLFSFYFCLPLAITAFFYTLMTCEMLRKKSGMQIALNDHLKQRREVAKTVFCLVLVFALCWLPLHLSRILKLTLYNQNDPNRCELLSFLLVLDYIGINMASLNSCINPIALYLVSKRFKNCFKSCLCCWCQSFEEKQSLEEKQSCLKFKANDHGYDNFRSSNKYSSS
Assay: flow cytometry (FACS) on parental and resistant UACC-257X2.2 cells
Procedure: Expression of ETBR on the surface of the in vivo- and in vitro-derived resistant UACC-257X2.2 cells and the parental UACC-257X2.2 cells was then determined by FACS.

binding result: binds
B1: ch5E9 (antibody, human IgG1, kappa, V domains shown)
VH: QVQLLQSGAELARPGASVKLSCKASGYTFTSYWMQWVKQRPGQGLEWIGTIYPGDGDTSYAQKFKGKATLTTDKYSSTAYMQLSSLASEDSAVYYCARWGYAYDIDNWGQGTLVTVSS
VL: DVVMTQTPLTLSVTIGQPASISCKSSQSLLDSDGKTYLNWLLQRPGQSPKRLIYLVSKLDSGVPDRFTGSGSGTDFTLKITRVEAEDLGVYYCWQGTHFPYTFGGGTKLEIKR
notes: Naked antibody used as FACS staining reagent and detected with an anti-human Alexa 488 conjugate; also called anti-ETBR antibody; chimeric 5E9

binding result: binds
B2: hu5E9.v1 (antibody, human IgG1, kappa, V domains shown)
VH: EVQLVESGGGLVQPGGSLRLSCAASGYTFTSYWMQWVRQAPGKGLEWIGTIYPGDGDTSYAQKFKGRATLSTDKSKNTAYLQMNSLRAEDTAVYYCARWGYAYDIDNWGQGTLVTVSS
VL: DIQMTQSPSSLSASVGDRVTITCKSSQSLLDSDGKTYLNWLQQKPGKAPKRLIYLVSKLDSGVPSRFSGSGSGTDFTLTISSLQPEDFATYYCWQGTHFPYTFGQGTKVEIKR
notes: Naked antibody used as FACS staining reagent and detected with an anti-human Alexa 488 conjugate; also called anti-ETBR antibody; humanized 5E9 version 1
